Experimental findings from US20250011471A1 (published 2025) are described below.

Assay [1] concerns the target T1, human KLB/human FGFR1c complex on HEK293 cells (human, UniProt Q86Z14 53-1044; P11362 22-822). The assay can be described thus: cell-based or functional assay.
Assay [2] has as its target T2, human FGFR1c on cells (human, UniProt P11362 22-822).
T2 construct: HEK293 cells expressing FGFR1c without KLB; also called hFGFR1c
Nature of the assay: radiolabel ligand assay on cells expressing only FGFR1c; could not be determined reliably.

The target in a further assay is T3, mouse KLB (mouse, UniProt Q99N32 53-990).
T3 construct: KLB cDNA in pRK vector, transiently expressed on HEK293T cells for FACS
T3 sequence: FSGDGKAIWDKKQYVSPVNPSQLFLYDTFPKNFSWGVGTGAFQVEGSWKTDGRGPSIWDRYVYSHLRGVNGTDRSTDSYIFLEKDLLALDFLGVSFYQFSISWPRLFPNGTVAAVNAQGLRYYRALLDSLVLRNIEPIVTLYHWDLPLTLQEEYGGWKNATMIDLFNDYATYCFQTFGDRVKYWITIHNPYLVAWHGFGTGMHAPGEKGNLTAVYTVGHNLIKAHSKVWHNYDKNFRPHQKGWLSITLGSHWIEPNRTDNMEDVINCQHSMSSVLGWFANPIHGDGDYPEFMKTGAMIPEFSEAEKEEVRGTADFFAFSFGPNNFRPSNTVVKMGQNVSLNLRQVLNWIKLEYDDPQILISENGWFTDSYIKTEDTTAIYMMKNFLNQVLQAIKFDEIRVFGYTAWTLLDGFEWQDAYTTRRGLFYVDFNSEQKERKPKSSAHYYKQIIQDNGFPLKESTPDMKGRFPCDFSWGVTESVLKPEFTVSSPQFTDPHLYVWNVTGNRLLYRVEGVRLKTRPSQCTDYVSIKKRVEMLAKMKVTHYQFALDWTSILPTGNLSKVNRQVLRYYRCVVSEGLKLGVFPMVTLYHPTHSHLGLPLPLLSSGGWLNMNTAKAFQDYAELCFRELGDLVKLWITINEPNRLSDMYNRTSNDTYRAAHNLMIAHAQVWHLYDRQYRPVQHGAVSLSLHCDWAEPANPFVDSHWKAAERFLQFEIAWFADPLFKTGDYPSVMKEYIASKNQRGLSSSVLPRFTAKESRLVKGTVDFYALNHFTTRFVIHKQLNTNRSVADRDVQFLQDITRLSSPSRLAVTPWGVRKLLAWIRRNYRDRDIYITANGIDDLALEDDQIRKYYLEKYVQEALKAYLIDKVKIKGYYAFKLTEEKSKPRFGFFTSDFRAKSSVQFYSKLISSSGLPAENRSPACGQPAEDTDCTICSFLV
The assay can be described thus: radiolabeled ligand cell binding assay on stable HEK293 cells, iodinated against unlabeled protein.

The target in assay [3] is T1, human KLB/human FGFR1c complex on …. The description is as above.
The target in the next assay is T4, human KLB on cells (human, UniProt Q86Z14 53-1044).
T4 construct: also called hKLB; beta-Klotho
Described as above.

The target in assay [4] is T2, human FGFR1c on cells. Described as above.

T2 sequence (P11362 other isoform, or with tags, fused parts or gaps limits assumed): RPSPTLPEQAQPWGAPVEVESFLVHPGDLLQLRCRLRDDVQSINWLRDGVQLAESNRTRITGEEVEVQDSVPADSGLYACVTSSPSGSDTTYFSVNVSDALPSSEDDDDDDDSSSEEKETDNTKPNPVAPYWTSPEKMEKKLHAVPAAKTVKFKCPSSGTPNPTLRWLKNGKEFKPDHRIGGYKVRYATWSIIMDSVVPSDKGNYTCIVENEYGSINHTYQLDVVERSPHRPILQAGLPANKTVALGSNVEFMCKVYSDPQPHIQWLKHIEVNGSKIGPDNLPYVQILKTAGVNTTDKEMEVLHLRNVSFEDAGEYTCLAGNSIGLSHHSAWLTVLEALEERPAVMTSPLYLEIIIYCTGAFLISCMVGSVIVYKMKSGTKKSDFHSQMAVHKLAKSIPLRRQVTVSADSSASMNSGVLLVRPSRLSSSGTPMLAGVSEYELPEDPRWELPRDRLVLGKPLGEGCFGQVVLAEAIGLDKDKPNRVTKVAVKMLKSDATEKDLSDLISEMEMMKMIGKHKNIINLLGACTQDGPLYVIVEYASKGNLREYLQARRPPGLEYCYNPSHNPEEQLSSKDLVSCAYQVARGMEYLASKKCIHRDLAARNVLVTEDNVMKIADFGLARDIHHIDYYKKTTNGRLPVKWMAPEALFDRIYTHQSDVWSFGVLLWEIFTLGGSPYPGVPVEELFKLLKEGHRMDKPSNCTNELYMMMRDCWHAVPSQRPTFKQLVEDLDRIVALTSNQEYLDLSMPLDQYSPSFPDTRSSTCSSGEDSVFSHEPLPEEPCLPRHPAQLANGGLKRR

B1: BsAb10 (bispecific antibody)
chain 1: EVQLVESGGGLVQPGGSLRLSCAASGFTFTSNWISWVRQAPGKGLEWVAEIDPYDGATDYADSVKGRFTISADTSKNTAYLQMNSLRAEDTAVYYCATGTDVMDYWGQGTLVTVSS
chain 2: DIQMTQSPSSLSASVGDRVTITCRASQDVSTAVAWYQQKPGKAPKLLIYSASFLYSGVPSRFSGSGSGTDFTLTISSLQPEDFATYYCQQSYTTPPTFGQGTKVEIK
chain 3: QVQLKQSGPGLVQPSQSLSVACTVSDFSLTTYGVHWVRQSPGKGLEWLGVIWSGGSTDYNAAFISRLTISKDNSKSQVFFKMNSLQTTDTAIYYCARDYGSTYVDAIDYWGQGTSVTVSS
chain 4: DIVLTQSPTSLAVSLGQRATISCRASESVESYGNRYMTWYQQKPGQPPKLLIYRAANLQSGIPARFSGSGSRTDFTLTIDPVEADDVATYYCQQSNEDPWTFGGGTKVEIK
For B1, in assay [1], the “EC50 in GAL-ELK1 assay in HEK293 cells” value amounted to 3.2 nM. Besides, the Kd (commonly a measure of binding affinity in units of concentration) with human FGFR1c on cells [2] is greater than 300 nM; with mouse KLB, 15.5 nM; in assay [3], 2.3 nM; with human KLB on cells it was 6.6 nM; with human FGFR1c on cells [4], 300 nM.

B2: BsAb9 (bispecific antibody)
chain 1: EVQLVESGGGLVQPGGSLRLSCAASGFTFTSNWISWVRQAPGKGLEWVAEIDPYDGATDYADSVKGRFTISADTSKNTAYLQMNSLRAEDTAVYYCATGTDVMDYWGQGTLVTVSS
chain 2: DIQMTQSPSSLSASVGDRVTITCRASQDVSTAVAWYQQKPGKAPKLLIYSASFLYSGVPSRFSGSGSGTDFTLTISSLQPEDFATYYCQQSYTTPPTFGQGTKVEIK
chain 3: EVKFLESGGGLVQPGGSLRLSCAVSGIDFSRYWMSWVRQAPGKGLEWIGEISPDSSTINYTPSLKDKFVISRDNAKNTLYLQMSKVRSADTALYYCARPSPALDYWGQGTLVTVSA
chain 4: DIVMTQSPATLSVTPGDRVSLSCRASQSISDYVYWYQQKSHESPRLLIIYASQSISGIPSRFSGSGSGSDFTLSINSVEPEDVGVYYCQNGHNFPYTFGGGTKLEIK
As for B2, the values for the Kd (in assay [3]; in the assay with human KLB on cells; in the assay with human FGFR1c on cells [4]) were 2.2 nM, 9.8 nM and 300 nM, respectively.
